Results as given in patent US20180305432A1.

Biological target: self-lipid accumulated in leukemia cells peptide on CD1c (human)
Experiment: mLPA titration on K562-CD1c cells; CD69 on transduced Jurkat 76 b2m- cells (FIG. 5B); highest of the three TCRs titrated; full-length, on cells
Settings: chains Valpha:Vbeta

B1: TCR DN4.99 (protein)
chain 1: AQTVTQSQPEMSVQEAETVTLSCTYDTSESDYYLFWYKQPPSRQMILVIRQEAYKQQNATENRFSVNFQKAAKSFSLKISDSQLGDAAMYFCAYRSPLNTGTASKLTFGTGTRLQVTL
chain 2: DVKVTQSSRYLVKRTGEKVFLECVQDMDHENMFWYRQDPGLGLRLIYFSYDVKMKEKGDIPEGYSVSREKKERFSLILESASTNQTSMYLCASSPWVSSYEQYFGPGTRLTVT
  EC50 of peptide: 100 ng/µL
